Results taken from US20260035476A1.

Target: CD68 protein (human) (UniProt P34810)
Assay: flow cytometry on lupus patient PBMC, B cells (FIG. 3B)

UniProt P34810, sequence (P34810 22-354): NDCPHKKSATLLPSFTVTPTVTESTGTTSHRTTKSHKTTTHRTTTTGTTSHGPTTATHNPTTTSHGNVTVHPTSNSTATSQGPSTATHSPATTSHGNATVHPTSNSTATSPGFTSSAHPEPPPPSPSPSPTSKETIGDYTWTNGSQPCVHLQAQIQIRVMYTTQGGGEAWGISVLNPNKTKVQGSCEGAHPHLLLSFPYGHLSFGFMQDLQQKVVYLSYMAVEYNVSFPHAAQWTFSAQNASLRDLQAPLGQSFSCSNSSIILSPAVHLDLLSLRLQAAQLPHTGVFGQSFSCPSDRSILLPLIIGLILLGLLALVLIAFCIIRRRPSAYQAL

Y1/82A anti-CD68 monoclonal antibody
percent of B cells co-stained for CD68 and ARID3a: 29%
